Legend:
native MS = target: the molecule itself; test: native MS
SEC = target: the molecule itself; test: SEC

B1: MvoDUF2193 (natural protein, Methanococcus voltae strain A3, UniProt D7DSA4 1-499, looked up)
chain: MKELYEKMINEAMAAQWADVEVIKAKRGTKYKLTDGKPYVDAVQKMEAIGDQCSEVFDLHKNSVKIHYDTLCDLTDTVRPEDDPFVEHYQTPAILEILYNEDPKFREAVEKFIDSVEKNSALIGKEVVRRYGGFYGPTCVVDFALIPGSTSNIVNQILRKTDISEHYKQAILASKSWGMNTSYGIGDKFAHAVEDGKTLEEAIDEEIKTIKMIYDTPIQAQAKLMEEAGHTSFDVLKYMQDYKKKMESTVKKAIDADVNYANIVTVPAYCVGDISHHIAQSTYNMCKDDVIMAIIEATSKVMDNTLRNNIDKYKSEFDVLSLATGSTAAAVEYILELDGFNAPTVVQLLTRRFHNYVQLYPKRGAAAELHNCDFMDMIYRGWKTLDKARRMKNGSGTKLMPMVNDMPVDLDPIAENEVIMNPQRYAYPACAITVRFSSLMRLSDYPCLLTSEPVTATMMTNAIALHKNNPGAPARVCKKCASSCLVDFRHEYCQWRESV
Native MS
  stoichiometry N: 2
SEC
  stoichiometry N: 4
